Data taken from PMC5810440, “The Origins of Specificity in the Microcin-Processing Protease TldD/E” (Structure(London, England:1993), 2017).
Blank lines part the entries; values can stand above or below the molecule they belong to.

Experiments:
[1] = target: N-terminally 6xHis-tagged E. coli TldD (pET28b, purified separately) (E. coli) (UniProt P0AGG8); experiment: AUC; sedimentation equilibrium, 0.2 mg/ml protein in 50 mM Tris-HCl pH 7.5, 100 mM NaCl, 10000 rpm, 20 C, single species model
[2] = target: T1, TldD/E (purified TldD and TldE combined) (Escherichia coli, UniProt P0AGG8); experiment: inhibition of angiotensin II hydrolysis; type: biochemical; settings: substrate angiotensin II
T1 construct: with Metalloprotease PmbA
T1 sequence (P0AGG8 1-481): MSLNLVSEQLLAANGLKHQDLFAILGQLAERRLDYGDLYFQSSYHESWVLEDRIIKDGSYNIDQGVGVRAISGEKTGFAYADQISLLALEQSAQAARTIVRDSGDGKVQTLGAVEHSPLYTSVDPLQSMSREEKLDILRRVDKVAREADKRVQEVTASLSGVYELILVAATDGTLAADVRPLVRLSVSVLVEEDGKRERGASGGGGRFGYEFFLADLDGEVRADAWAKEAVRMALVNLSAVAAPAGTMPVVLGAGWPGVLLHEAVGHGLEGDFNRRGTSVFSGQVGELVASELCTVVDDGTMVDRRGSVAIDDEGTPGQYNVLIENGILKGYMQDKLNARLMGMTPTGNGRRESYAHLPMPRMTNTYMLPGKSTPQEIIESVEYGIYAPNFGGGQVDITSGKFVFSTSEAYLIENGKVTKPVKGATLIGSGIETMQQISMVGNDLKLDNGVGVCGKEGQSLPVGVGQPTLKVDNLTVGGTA
T1 sequence (P0AFK0 1-450 partner): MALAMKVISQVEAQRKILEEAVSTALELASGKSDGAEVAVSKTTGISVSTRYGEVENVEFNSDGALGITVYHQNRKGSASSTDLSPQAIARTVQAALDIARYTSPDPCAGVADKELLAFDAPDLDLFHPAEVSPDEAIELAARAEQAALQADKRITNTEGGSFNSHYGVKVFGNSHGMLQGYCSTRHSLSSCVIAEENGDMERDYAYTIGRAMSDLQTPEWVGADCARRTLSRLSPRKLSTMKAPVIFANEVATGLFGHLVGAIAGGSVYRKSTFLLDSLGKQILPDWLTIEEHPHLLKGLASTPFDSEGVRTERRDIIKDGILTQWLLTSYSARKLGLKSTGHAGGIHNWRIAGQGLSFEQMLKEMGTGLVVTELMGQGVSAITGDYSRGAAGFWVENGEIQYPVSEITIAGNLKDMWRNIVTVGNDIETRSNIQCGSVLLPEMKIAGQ

[3] = target: T2, His-tagged E. coli TldD co-expressed with untagged TldE (pColA-Duet, MCS I) (E. coli, UniProt P0AGG8 1-481, Gly to Asp at position 401); experiment: pull-down; Ni affinity chromatography of extracts of E. coli co-overproducing His-tagged TldD and untagged TldE; wash ~20 CV with 1 M NaCl, 50 mM imidazole, 0.1% Triton X-100; elution with 250 mM imidazole; settings: partners not purified
T2 construct: TldD of E. coli MG1655, cloned into MCS I of pColA-Duet (BamHI/HindIII); residues 2-481 seen in the crystals; Zn in the active site (grown with 50 uM ZnCl2 for crystals); also called TldD-His; His-tagged TldD; source: E. coli BL21 (DE3) Gold, co-overproduced with TldE
T2 sequence (looked up): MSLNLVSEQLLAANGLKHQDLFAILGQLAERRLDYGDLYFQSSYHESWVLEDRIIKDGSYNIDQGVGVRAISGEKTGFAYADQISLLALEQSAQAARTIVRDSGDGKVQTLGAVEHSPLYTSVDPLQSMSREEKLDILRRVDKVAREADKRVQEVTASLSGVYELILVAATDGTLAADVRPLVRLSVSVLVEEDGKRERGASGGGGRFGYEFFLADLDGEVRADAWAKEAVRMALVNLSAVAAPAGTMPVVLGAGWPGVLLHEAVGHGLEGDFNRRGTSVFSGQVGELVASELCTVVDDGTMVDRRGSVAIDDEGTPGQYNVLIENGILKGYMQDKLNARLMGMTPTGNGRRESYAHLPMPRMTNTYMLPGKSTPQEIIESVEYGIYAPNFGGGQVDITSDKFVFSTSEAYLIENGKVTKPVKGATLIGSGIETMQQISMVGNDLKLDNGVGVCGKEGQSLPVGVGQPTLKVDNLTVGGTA

[4] = target: T3, E. coli TldD His262Ala mutant (subunit of the TldD^H262A/E complex) (E. coli, UniProt P0AGG8 1-481, H262A | Gly to Asp at position 401); experiment: crystal structure; X-ray structures of the co-purified TldD/E heterodimer (wild type and TldD mutants), two heterodimers in the asymmetric unit; condition 1 (phosphate, PEG 3350) or condition 2 (PEG 1500, MMT pH 8.0), 20 C; settings: both partners purified
T3 construct: TldD of E. coli MG1655 with H262A; Gly401 to Asp was introduced into all the models; source: E. coli, mutant protein complex with TldE
T3 sequence (looked up): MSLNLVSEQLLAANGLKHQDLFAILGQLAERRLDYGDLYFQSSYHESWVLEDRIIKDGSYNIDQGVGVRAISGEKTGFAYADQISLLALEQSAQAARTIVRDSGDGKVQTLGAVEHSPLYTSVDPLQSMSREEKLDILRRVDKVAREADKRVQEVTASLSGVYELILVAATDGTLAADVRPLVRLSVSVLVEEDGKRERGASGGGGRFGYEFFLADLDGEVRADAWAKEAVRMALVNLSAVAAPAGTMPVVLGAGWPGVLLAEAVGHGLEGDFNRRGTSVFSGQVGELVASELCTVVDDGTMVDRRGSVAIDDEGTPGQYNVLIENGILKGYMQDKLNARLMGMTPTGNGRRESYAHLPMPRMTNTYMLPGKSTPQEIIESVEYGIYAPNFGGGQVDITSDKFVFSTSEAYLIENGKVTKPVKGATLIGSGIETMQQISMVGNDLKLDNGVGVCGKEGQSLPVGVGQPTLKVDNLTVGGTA

[5] = target: T4, E. coli TldD Glu263Ala mutant (subunit of the TldD^E263A/E complex) (E. coli, UniProt P0AGG8 1-481, E263A | Gly to Asp at position 401); experiment: as above; settings: both partners purified
T4 construct: TldD of E. coli MG1655 with E263A; Gly401 to Asp was introduced into all the models; The methods say only that the mutants were made by overlap extension PCR and 'cloned and produced as described above'; also called Glu263Ala TldD mutant; source: E. coli, mutant protein complex with TldE
T4 sequence (looked up): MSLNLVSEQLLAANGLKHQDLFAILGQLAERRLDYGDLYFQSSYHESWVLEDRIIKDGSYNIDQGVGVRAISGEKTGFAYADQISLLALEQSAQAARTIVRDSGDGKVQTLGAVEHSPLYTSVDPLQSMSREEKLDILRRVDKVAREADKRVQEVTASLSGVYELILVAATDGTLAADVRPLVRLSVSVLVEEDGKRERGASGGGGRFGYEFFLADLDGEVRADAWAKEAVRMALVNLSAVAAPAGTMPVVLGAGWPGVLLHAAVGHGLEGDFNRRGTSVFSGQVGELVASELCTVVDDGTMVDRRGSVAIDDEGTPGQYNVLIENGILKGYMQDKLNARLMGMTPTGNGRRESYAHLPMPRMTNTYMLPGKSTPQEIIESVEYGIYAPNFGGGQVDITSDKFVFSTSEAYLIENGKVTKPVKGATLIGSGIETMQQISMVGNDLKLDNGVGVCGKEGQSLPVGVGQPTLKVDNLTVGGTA

[6] = target: the molecule itself; experiment: AUC; sedimentation equilibrium, 0.2 mg/ml protein in 50 mM Tris-HCl pH 7.5, 100 mM NaCl, 10000 rpm, 20 C, single species model

- stoichiometry N [1]: 2
Molecule: N-terminally 6xHis-tagged E. coli TldD (pET28b, purified separately) (from UniProt P0AGG8 1-481) (natural protein)

Molecule: CCCCC[C@H](CC(=O)NO)C(=O)N[C@H](C(=O)N1CCC[C@H]1CO)C(C)C [Actinonin]
- inhibition of angiotensin II hydrolysis [2]: actinonin (deformylase inhibitor) efficiently prevented angiotensin II hydrolysis by TldD/E

- binding result [3]: binds
- binding result [4]: binds
- binding result [5]: binds
B1: untagged E. coli TldE co-expressed with His-tagged TldD (pColA-Duet, MCS II) (natural protein, UniProt P0AFK0 1-450, looked up)
chain: MALAMKVISQVEAQRKILEEAVSTALELASGKSDGAEVAVSKTTGISVSTRYGEVENVEFNSDGALGITVYHQNRKGSASSTDLSPQAIARTVQAALDIARYTSPDPCAGVADKELLAFDAPDLDLFHPAEVSPDEAIELAARAEQAALQADKRITNTEGGSFNSHYGVKVFGNSHGMLQGYCSTRHSLSSCVIAEENGDMERDYAYTIGRAMSDLQTPEWVGADCARRTLSRLSPRKLSTMKAPVIFANEVATGLFGHLVGAIAGGSVYRKSTFLLDSLGKQILPDWLTIEEHPHLLKGLASTPFDSEGVRTERRDIIKDGILTQWLLTSYSARKLGLKSTGHAGGIHNWRIAGQGLSFEQMLKEMGTGLVVTELMGQGVSAITGDYSRGAAGFWVENGEIQYPVSEITIAGNLKDMWRNIVTVGNDIETRSNIQCGSVLLPEMKIAGQ
notes: TldE (PmbA) of E. coli MG1655, cloned into the second MCS of pColA-Duet (NdeI/XhoI), untagged; residues 6-450 seen in the crystals; also called PmbA; TldE subunit; source: E. coli BL21 (DE3) Gold, co-overproduced with His-tagged TldD

B2: N-terminally 6xHis-tagged E. coli TldE (pET28b, purified separately) (natural protein, UniProt P0AFK0 1-450, looked up)
chain: MALAMKVISQVEAQRKILEEAVSTALELASGKSDGAEVAVSKTTGISVSTRYGEVENVEFNSDGALGITVYHQNRKGSASSTDLSPQAIARTVQAALDIARYTSPDPCAGVADKELLAFDAPDLDLFHPAEVSPDEAIELAARAEQAALQADKRITNTEGGSFNSHYGVKVFGNSHGMLQGYCSTRHSLSSCVIAEENGDMERDYAYTIGRAMSDLQTPEWVGADCARRTLSRLSPRKLSTMKAPVIFANEVATGLFGHLVGAIAGGSVYRKSTFLLDSLGKQILPDWLTIEEHPHLLKGLASTPFDSEGVRTERRDIIKDGILTQWLLTSYSARKLGLKSTGHAGGIHNWRIAGQGLSFEQMLKEMGTGLVVTELMGQGVSAITGDYSRGAAGFWVENGEIQYPVSEITIAGNLKDMWRNIVTVGNDIETRSNIQCGSVLLPEMKIAGQ
notes: 50.5 kDa with the tag; also called His-TldE; PmbA; source: E. coli BL21 (DE3) Gold, purified (Ni-NTA)
- stoichiometry N [6]: 2
